In article PMC12207370, “Macrocyclic Peptide Probes for Immunomodulatory Protein CD59: Potent Modulators of Bacterial Toxin Activity and Antibody‐Dependent Cytotoxicity” (Angewandte Chemie (International Ed. in English), 2025):

Molecular target: T1, biotinylated CD59 (Homo sapiens, UniProt P13987)
T1 construct: Recombinant soluble human CD59 with an additional C-terminal cysteine residue
T1 sequence (P13987 26-102 limits assumed): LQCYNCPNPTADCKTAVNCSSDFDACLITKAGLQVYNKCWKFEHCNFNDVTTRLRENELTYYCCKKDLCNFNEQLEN
Assay: mRNA-display cyclic peptide screen against CD59-biotin, NGS abundance after 6th selection round
Conditions: for Counts (raw counts for peptide sequence), Seq I: NGS sample Seq I; for Counts (raw counts for peptide sequence), Seq I / Counts (raw counts for peptide sequence), Seq II / Counts Seq I / Counts Seq II: sheet R6 (6th selection round); for Counts (raw counts for peptide sequence), Seq II: NGS sample Seq II; for Percentage of the pool, averaged across the two sequencing samples: average of Seq I and Seq II; for Percentage of the pool, averaged across the two sequencing samples / Percentage of the pool, Seq I / Percentage of the pool, Seq II / Percentage Seq I / Percentage Seq II / Percentage Average: sheet R6; for Percentage of the pool, Seq I: counts normalised by total counts of NGS sample Seq I; for Percentage of the pool, Seq II: counts normalised by total counts of NGS sample Seq II; for Percentage Seq I: counts normalised by total counts of sample Seq I; for Percentage Seq I / Percentage Seq II: percentage of the pool; for Percentage Seq II: counts normalised by total counts of sample Seq II; for Percentage Average: percentage of the pool averaged across the two sequencing samples; for Counts Seq I / Counts Seq II: raw NGS counts of peptide sequence; for Counts Seq I: sequencing sample Seq I; for Counts Seq II: sequencing sample Seq II
Excerpt: To discover novel non‐protein CD59 ligands, we screened a library of 10^12 cyclic peptides against CD59 using mRNA‐display (Figure 2a).^[ [23], [24], [25], [26], [27], [28], [29] ^] Briefly, an mRNA library was designed in which the start codon was reprogrammed from Met to N‐chloroacetyl‐D‐Tyr (ClAc‐D‐Tyr), followed by 10–12 randomly encoded natural amino acids, a Cys residue, a (GlySer)3 linker, and a stop codon. […] The total library diversity was 1.51 × 10^13 molecules, comprising 5.02 × 10^12 molecules of each macrocycle size, covering a subset of the maximum theoretical diversity of this library design. Following in vitro translation, ClAc‐D‐Tyr spontaneously reacts with either the C‐terminal Cys or a Cys in the random region, yielding macrocyclic thioether peptides. Hits from the library were identified through iterative enrichment and amplification against biotinylated CD59, then immobilized on streptavidin beads. Fifteen hit sequences (CP‐01 to CP‐15), enriched with abundance >1% relative to the total pool of recovered binders after the 6th round of selection, were synthesized by solid phase peptide synthesis (SPPS), without the (Gly‐Ser)3 linker.
Figure 2 Discovery of macrocyclic peptide ligands with nanomolar CD59 affinity using mRNA display. a) The selection process. PCR = polymerase chain reaction, SPPS = solid phase peptide synthesis. b) Table showing details of the peptides with nanomolar affinity for CD59 as well as the binding affinity of the lead inhibitor of CD59, rILYd4. K D values are presented as the average of three technical replicates ± SEM. Structures of all peptides and SPR sensograms are presented in Figures S1 and S2. *indicates the presented sequences are the variable regions of these cyclic peptides; each is flanked by an N‐terminal Ac‐D‐Tyr cyclized to a C‐terminal Cys. R6 abundance (%) is defined as (the given number of NGS reads for a given sequence/the total number of reads of unique sequences observed in NGS)*100 following the 6th selection round. c) Representative sensogram of the interaction between CP‐06 with immobilized CD59 by SPR analysis. Inset showing the equilibrium binding curve of CP‐06 to CD‐59. Below in the box are the association and dissociation rate constants of CP‐06. Concentrations are plotted in descending order from 800‐3.1 nM in line with their position on the legend. […] (nM)'; the box with Kon/Koff has no label of its own / ILYd4: the label may be cut off at the left edge (possibly 'rILYd4') / CP-02, KD: 15.3 ± 0.2, small print, 3 or 8 uncertain / CP-03, KD: 23.4 ± 0.7, small print / CP-06, KD: 11.3 ± 0.0, small print, 3 or 8 uncertain / CP-13, KD: 10.8 ± 0.7, small print, 8 or 6 uncertain / ILYd4, KD: 48.3 ± 1.1, small print, 8 and 3 uncertain
The mRNA-display cyclic peptide screen was performed against CD59-biotin by T.E.M: DNA templates for transcription were generated by PCR in a similar manner to that previously described.^2 RNA oligonucleotides were transcribed from the DNA templates using T7 RNA polymerase and purified by phenol/chloroform extraction followed by ethanol precipitation. Oligonucleotide concentrations were determined spectroscopically by absorbance at 260 nm. In the first selection round a 1:1:1 molar ratio of NNK10/NNK11/NNK12 was used. The procedure for selection rounds 2-6 is described below; round 1 was conducted at twice the scale.
RNA encoding for the peptide library ligated to a puromycin-modified oligonucleotide was […] (final [RNA] = 2.5 µM) using a customised PURE express kit (lacking release factor 1 and methionine, supplemented with […] initiator tRNA acylated with N-chloroacetyl-d-tyrosine prepared as previously described)^3 in a final volume of 5.6 µL for 1 hour at 37 °C.
This mixture was incubated at 42 °C for 1 hour before being diluted to 500 µL with PBS (10 mM Na-PO4 pH 7.4, 2.7 mM KCl, 137 mM NaCl) and 0.5 µL taken for subsequent use in qPCR. […]

Sequence | Counts (raw counts for peptide sequence), Seq I | Counts (raw counts for peptide sequence), Seq II | Percentage of the pool, averaged across the two sequencing samples | Percentage of the pool, Seq I | Percentage of the pool, Seq II | Percentage Seq I | Percentage Seq II | Percentage Average | Counts Seq I | Counts Seq II
AISGGRDYTRG | 43 | 6 | 0.012% | 0.010% | 0.014% | – | – | – | – | –
AKGNGHFAYG | – | – | – | – | – | 0.144% | 0.114% | 0.129% | 629 | 49
ARGGPTWSRG | – | – | – | – | – | 0.034% | 0.037% | 0.035% | 147 | 16
ASWLPSPCKFN | – | – | – | – | – | 0.029% | 0.037% | 0.033% | 128 | 16
ASWLPSPCKFS | 73 | 4 | 0.013% | 0.017% | 0.009% | – | – | – | – | –
ASWLTAPCYV | – | – | – | – | – | 0.032% | 0.019% | 0.025% | 138 | 8
AVAGSRHWAWG | – | – | – | – | – | 0.039% | 0.039% | 0.039% | 171 | 17
AVHGSSFYVWG | – | – | – | – | – | 0.037% | 0.039% | 0.038% | 164 | 17
AVRGSSFYVWG | – | – | – | – | – | 0.098% | 0.107% | 0.102% | 427 | 46
AVWGSAHDRWE | – | – | – | – | – | 0.044% | 0.046% | 0.045% | 193 | 20
CAWGNRHIAYY | – | – | – | – | – | 0.183% | 0.195% | 0.189% | 800 | 84
CAWGNRHTAYY | – | – | – | – | – | 0.018% | 0.030% | 0.024% | 80 | 13
CAWGNRYIAYY | – | – | – | – | – | 0.078% | 0.067% | 0.073% | 342 | 29
CAWGNRYTAYY | 68 | 5 | 0.014% | 0.016% | 0.012% | – | – | – | – | –
CCGGRTFIYAWS | 44 | 4 | 0.010% | 0.010% | 0.009% | – | – | – | – | –
CEALLRRGWD | – | – | – | – | – | 0.094% | 0.079% | 0.087% | 413 | 34
CFAARARNNQTV | – | – | – | – | – | 0.091% | 0.093% | 0.092% | 396 | 40

Sequence | Counts (raw counts for peptide sequence), Seq I | Counts (raw counts for peptide sequence), Seq II | Percentage of the pool, averaged across the two sequencing samples | Percentage of the pool, Seq I | Percentage of the pool, Seq II | Percentage Seq I | Percentage Seq II | Percentage Average | Counts Seq I | Counts Seq II
CFAARLSNGDS | – | – | – | – | – | 0.319% | 0.362% | 0.341% | 1397 | 156
CFAARLSNGDT | 73 | 7 | 0.016% | 0.017% | 0.016% | – | – | – | – | –
CFAFRLSQTSV | – | – | – | – | – | 0.179% | 0.146% | 0.162% | 782 | 63
CFAGRLAIDAV | 54 | 8 | 0.015% | 0.012% | 0.019% | – | – | – | – | –
CFAGRLTEGV | – | – | – | – | – | 0.035% | 0.044% | 0.040% | 155 | 19
CFAGRLTIDAA | 78 | 1 | 0.010% | 0.018% | 0.00232% | – | – | – | – | –
CFAGRLTIDAAAAAAARTGGG | 62 | 9 | 0.018% | 0.014% | 0.021% | – | – | – | – | –
CFAGRLTIDAG | 59 | 4 | 0.011% | 0.013% | 0.009% | – | – | – | – | –
CFAGRLTIDAV | – | – | – | – | – | 2.645% | 2.553% | 2.599% | 11574 | 1100
CFAGRLTIGAV | – | – | – | – | – | 0.056% | 0.056% | 0.056% | 245 | 24
CFAGRLTTDAV | – | – | – | – | – | 0.044% | 0.044% | 0.044% | 193 | 19
CFAGRLTVDAV | – | – | – | – | – | 0.037% | 0.030% | 0.034% | 163 | 13
CFAGRPTIDAV | – | – | – | – | – | 0.018% | 0.028% | 0.023% | 80 | 12
CFAHRITDPDTQ | – | – | – | – | – | 0.023% | 0.019% | 0.021% | 100 | 8
CFAHRITDPNTQ | – | – | – | – | – | 0.027% | 0.014% | 0.020% | 117 | 6
CFAKRIVALHST | 54 | 7 | 0.014% | 0.012% | 0.016% | – | – | – | – | –
CFAKRLSLDAL | – | – | – | – | – | 0.177% | 0.176% | 0.177% | 774 | 76
